According to the nanobody polyreactivity screen of Harvey et al. (2022):

Test: yeast display, Sf9 membrane polyspecificity reagent, FACS + sequencing; frameworks hold sequencing errors
In short: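 Nanobodies came from a synthetic yeast display library in Saccharomyces cerevisiae BJ5465, induced with galactose for 36–48 hours and stained for 1 hour at 4 °C with 10% biotinylated, detergent-solubilized Sf9 membrane reagent. Cells were enriched on streptavidin microbeads and then FACS-sorted, with low and high (top ~1%) gates set on anti-HA fluorescence for expression and streptavidin fluorescence for reagent binding. Each polyreactivity label reflects the gate a clone came from. Genes were amplified by colony PCR, sequenced by MiSeq 2 × 250 and filtered by CDR length.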

Row | Sequence | polyreactivity (PSR sort gate)
1 | QVQLVESGGGLVQAGGSLRLSCAASGSIISYYAMGWYRQAPGKERELVAAISRGGGRTYYADSVKGRFTISRDNAKNTVYLQMNSLKPEDTAVYYCAVTPVRFASGGAWMDYWGQGTQVTVSS | high polyreactivity
2 | QVQLVESGGGLVQAGGSLRLSCAASGSIIWLYAMGWYRQAPGKERELVAAISSGGSTYYADSVKGRFTISRDNAKNTVYLQMNSLKPEDTAVYYCAADYWSQSDWWDLTEYEYWGLGTQVTVSS | high polyreactivity
3 | QVQLVESGGGLVQAGGSLRLSCAASGSIIWRNAMGWYIQAPGKERELVAAISYSGGSTYYADSVKGRFTISRDNAKNTVYLQMNSLKPEDTAVYYCAARTSYYVYRHPSGRYDYWGQGSQVTVSS | low polyreactivity
4 | QVQLVESGGGLVQAGGSLRLSCAASGSIIYFYAMGWYRPAPGKERELVAAISITSASTYYADSVKGRFTISRDNAKNTVYLQMNSLKPEDTAVYYCAAEYYYVDWIYDYWGQGTQVTVSS | high polyreactivity
5 | QVQLVESGGGLVQAGGSLRLSCAASGSIIYNNAMGWYRQAPGKERELVAAIRSTGTRTYYADSVKGRFTISRDNAKNTVYLQMNSLKPEDTAVYYCAVGDYGLWSYVYWGQGTQVTVSS | low polyreactivity
6 | QVQLVESGGGLVQAGGSLRLSCAASGSIIYYAMGWYRQAPGKEREFVAAITKSGGSTYYADSVKGRFTFSRDNAKNTVYLQMNSLKPEDTAVYYCAARGTWAGFYYWGQGTQVTLSS | high polyreactivity
7 | QVQLVESGGGLVQAGGSLRLSCAASGSIKQNSMGWYRQAPGKERELVAAIDWDGSSTYYADSVKGRFTISRDNAKNTVYLQMNSLKPEDTAVYYCNTDYTGPDGTDEYDYWGQVTQVTVSS | low polyreactivity
8 | QVQLVESGGGLVQAGGSLRLSCAASGSILAGYAMGWYRQAPGKERELVAAITSGGGSTYYADSVKGRFTISSDNAKITVYLQMNSLKAEDTAVYYCARDSGYYYDEYYYWGQGTKVTVSS | low polyreactivity
9 | QVQLVESGGGLVQAGGSLRLSCAASGSILCLNAMGWYRQAPGKERELVADITRGGSTYYADSVKGRFTISRDNAKNTVYLQMNSLKPEDTAVYYCAADAYTGQIPYYYFEHYYWGQGTQVTVSS | high polyreactivity
10 | QVQLVESGGGLVQAGGSLRLSCAASGSILDIYAMGWYRQAPGKERELVAGISTSGGSTYYADSVKGRFTISRDNAKNTVYLQMNSLNPEDTAVYYCAKDYGYQGLTRTLYCAYLEYDYWGQGTQVTVSS | low polyreactivity
11 | QVQLVESGGGLVQAGGSLRLSCAASGSILDPNAMGWYRQAPGKERELVASISRGDNTYYADSVKGRFTISRDNAKNTVYFQMNSLKPEDTAVYDCAADYSWVVWHDYWGQGTQVTVSS | low polyreactivity
12 | QVQLVESGGGLVQAGGSLRLSCAASGSILDSNAMGWYRQAPGKERELVAAITSGGSTYYADSVKGRFTISRDNAKNTVYLQMNSLKPEDTAVYFCAAAFLGYGAVQPSYEGGYWGQGTQVTVSS | low polyreactivity
13 | QVQLVESGGGLVQAGGSLRLSCAASGSILDYNTMGWYIQAPGKERELVAAIDDDSTYYADSVKGRFTISRDNAKNTVYLQMNSLKPEDTAVYYSAVDWYYGDTYGYYYWYDYWGQGTQVTVSS | high polyreactivity
14 | QVQLVESGGGLVQAGGSLRLSCAASGSILGANVMGWYRQAPGKERELVASISKSGGNTFYADSVKGRFTISRDNAKNTVYLQLNRLKPEDTAVYYCAKRAHRYSYRYTYDYWGQGTQVTVSS | low polyreactivity
15 | QVQLVESGGGLVQAGGSLRLSCAASGSILGDNAMGWYRQAPGKERELVAAISYRGGSTYADSVKGRFTISRDNAKNTVYLQMNRLKPEDTAVYYCNITDIDDSQYREYEYWGQGTQVTVSS | low polyreactivity
16 | QVQLVESGGGLVQAGGSLRLSCAASGSILGIYGMGWYRQSRGKERELVAAISYSGGSTYYADSVKGRFSISRDNAKNTVYLQMNSLKPEDTAVYYCAADLTRGVSYYVDFYYWGQGTQVTVSS | low polyreactivity
17 | QVQLVESGGGLVQAGGSLRLSCAASGSILGYYVMGWYRQAPGKERELVAVISSDGSTYYADSVKGRFTISRDNAKNTVYLQMNSLKPEDTAVYYCNADYYVEYDYWGQGTQVTVSS | low polyreactivity
18 | QVQLVESGGGLVQAGGSLRLSCAASGSILHVYAMGWYRQAPGKERELVAAISKSGTRTYYAVSVKGRFTISRDNAKNTVYLQMNRLKPEDTAVYYCAAERSQYVYSTDPYGYDYWGQGTQVTVSS | high polyreactivity
19 | QVQLVESGGGLVQAGGSLRLSCAASGSILIGNAMGWYRQAPGKERELVAAIRSGGSTNYADSVKGRFTISRDNAKNTVYLHMNSLKPEDTAVYYCARDVYVYYPYYAYDYWGQGTQVTVSS | low polyreactivity
20 | QVQLVESGGGLVQAGGSLRLSCAASGSILIHYTMGWYRQAPGKERELVAAISSTGGSTYYADSVKGRFTISRDNAKNTVYLQMNSLKPEDTAVYYCNAKQYWYYFWAYQQRDVESDYWGQGTQVTVSS | low polyreactivity
21 | QVQLVESGGGLVQAGGSLRLSCAASGSILIYNAMGWYRQARGKERELVAAISTSGGSTYYADSVKGRFTISRDTAKNTVYLQMNSLKPEDTAVYYCAARAYPYGYWGQGTQVTVSS | low polyreactivity
22 | QVQLVESGGGLVQAGGSLRLSCAASGSILKPYAMRSYRQAPGKERELVAAISGTGGSTYYADSVKGRFTISRDNAKNTVYLQMNSLKPEDTAVYYCNADEFRYAFEYWGQGTQVTVSW | high polyreactivity

Row | Sequence | polyreactivity (PSR sort gate)
23 | QVQLVESGGGLVQAGGSLRLSCAASGSILLFYVMGGYRQAPGKERELVAAITSSGGGTYYADSVKGRFTISRDNAKNTVYLQMNSLKPEDTALYYCNADDDYYGESYGPEFDYWGQGTQVTVSS | low polyreactivity
24 | QVQLVESGGGLVQAGGSLRLSCAASGSILLGYDLGWYRQAPGKERELVASIDTNGGSTYYADSVKGRFTISRDNAKNTVYLQMNSLKPEDTAVYYCNADPSFVGGTYDYWGQGTQVTVSS | low polyreactivity
25 | QVQLVESGGGLVQAGGSLRLSCAASGSILPYYAMGWSRQAPGKERELVATITDGTDTYYADSVKGRFTISRDNAKNTVYLQMNSLKPEDTAVYYCKADGYVYYMHEDYWGQGTQVTVSS | low polyreactivity
26 | QVQLVESGGGLVQAGGSLRLSCAASGSILPYYAMGWYRQAPGKERELVATITDGTDTYYADSVKGRFTISRDNAKNTVYLQMNSLKPEDTAVYYCNADGYVYYLHEDYWGQGTQVTVSS | low polyreactivity
27 | QVQLVESGGGLVQAGGSLRLSCAASGSILQQIYAMGWYRPAPGKERELVAAISASGGSTYYADSVKGRFTISRDNAKNTVYLQMNSLKPEDTAVYYCNKVGYYASVLGYDYWGQGTQVTVSS | high polyreactivity
28 | QVQLVESGGGLVQAGGSLRLSCAASGSILQQYTMGWYRPAPGKERELVAAISSSGSSTYYADSVKGRFTISRDNAKNTVYLQMNSLKPEDTAVYYCNADYHDKFYWGQGTQVTVSS | low polyreactivity
29 | QVQLVESGGGLVQAGGSLRLSCAASGSILQSYAMGWYRQAPGKERELVAAISGSGGSTYYADSVKGRFTISRDNAKNTVYLQMNSLKPEDTAVYYCAKGPLYRTSRGEFGYWGQGTQVTVSS | low polyreactivity
30 | QVQLVESGGGLVQAGGSLRLSCAASGSILQVYAMGWYRQAPGKERELVAGISWGGGRTYADSVKGRFTISRDNAKNTVYLQMISLKPEDTAVYYCNKVWRFGYYGSYYWGQGTLVTVSS | high polyreactivity
31 | QVQLVESGGGLVQAGGSLRLSCAASGSILQYKAMGWYRQAPGKERELVADITSSGGSTYYADSVKGRFTISRDNAKYTVSLQMNSLKPEDTAVYYFAKDTHWAYYWGQGTQVTVSS | low polyreactivity
32 | QVQLVESGGGLVQAGGSLRLSCAASGSILRRNTMGWYRQAPGKERELVAAINKSGGSTYYADSVKGRFTISRDNAKNTVYLQMNSLKPEDTAVYYCNRDNYYGTKYDYWGQGTQVTVSS | low polyreactivity
33 | QVQLVESGGGLVQAGGSLRLSCAASGSILSAYAMGWSRQAPGKERELVAAISWSGGSTYYADSVKGRFTISRDNAKNTVYLQMNSLKPEDTAVYYCATVNKKWRRYDYWGQGTQVTVSS | high polyreactivity
34 | QVQLVESGGGLVQAGGSLRLSCAASGSILSGNTMGWYRPAPGKERELVAAISYGGGSTYYADSVKGRFTISRDNAKNTVYLQMNSLKPEDTAVYYCAADPWYVAYLLDGYGMDYWGQGTQVTVSS | low polyreactivity
35 | QVQLVESGGGLVQAGGSLRLSCAASGSILSYNAMGWYRQAPGKERELVATITGTGGSTRYADSVKGRFTISRDNAKNTVYLQMNSLKPEDTAVYYCATAAWWYYRIYHEFGYWGQGTQVTVSS | high polyreactivity
36 | QVQLVESGGGLVQAGGSLRLSCAASGSILSYYAMGWYRQAPGKERELVAAISKSGGRTYYADSVKGRFTISRDNAKNTVYLQMNSLKPEDTAVYYCAAPATYKYDYWGQGTQVTVSS | high polyreactivity
37 | QVQLVESGGGLVQAGGSLRLSCAASGSILTHYAMGWYRQAPGKERELVAAITWRGGSTYYADSVKGRFTISRDNAKNTVYLQMNSLKPEDSAVYYCNADYFGGGDYWGQGTQVTVSS | low polyreactivity
38 | QVQLVESGGGLVQAGGSLRLSCAASGSILTSYAMGWSRQAPGKERELVAAISTTGGSTYYADSVKGRFTISRDNAKNTVYLQMNRLKPEDSAVYYCAAAGRTYRPGTGGYGYWGQGTQVTVSS | low polyreactivity
39 | QVQLVESGGGLVQAGGSLRLSCAASGSILTVYAMGWYRQAHGKERELVARIRSGDRTYYADSVKGRFTISRDNAKNTVYLQMNSLKPEDTAVYYCAAGSQRRYYHTNWDSFNYWGQGTQVTVSS | low polyreactivity
40 | QVQLVESGGGLVQAGGSLRLSCAASGSILVGNAMGWYRQAPGIERELVAGSSESDGSTNYADSGKGRFTISRDKSKNTVYLPMNSLKPEETAVYYRAADIWTSGDIPYDYWGQGTQVTVSS | low polyreactivity
41 | QVQLVESGGGLVQAGGSLRLSCAASGSILVGYAMGRYRLAPGKERELVAAISFSGGSTYYADSVKGRFTISRDNAKNTVYLQMNRLKQEDTAVYYCAAKRRVWIFYSSSDDYWGQGSQVTVSS | low polyreactivity
42 | QVQLVESGGGLVQAGGSLRLSCAASGSILVPYAMGWYRQAPGKERELVAAISIRTGSTYYADSVKGRFTISRDNAKNTVYLQMNSLKPEDTAVYYCNAAHRKPYTGLNYWGQGTQVTVSS | high polyreactivity
43 | QVQLVESGGGLVQAGGSLRLSCAASGSILVPYSMGWYRQAPGKERELVAAISWGGGSTYYADSVKGRFTISRDNAKNTVYLQMNSLKPEDTAVYYCAADFGYYDYDYWGQGTQVTVSS | low polyreactivity
